This note sets out measurements from US20150110787A1 (SAMSUNG ELECTRONICS, published 2015).

For experiment [1], the target named is T1, human VEGF-C polypeptide (R&D Systems; Accession # P49767) (human, UniProt P49767 103-227, limits assumed).
T1 construct: Bought protein; also called hVEGF-C; Recombinant VEGF-C protein (R&D Systems)
T1 sequence (looked up): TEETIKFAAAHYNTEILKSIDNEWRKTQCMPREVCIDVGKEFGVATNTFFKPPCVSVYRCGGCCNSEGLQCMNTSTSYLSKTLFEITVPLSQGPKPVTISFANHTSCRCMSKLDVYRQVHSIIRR
As to the kind of experiment: SPR, BIAcore T100; antibody captured on anti-human Fc antibody on a CM5 chip, recombinant VEGF-C flowed from 200 nM. The protocol: To accurately measure the affinity of the anti-VEGF-C antibody to its antigen, VEGF-C, Surface Plasmon Resonance (SPR) method was conducted using BIAcore T100 (GE Healthcare). The SPR method is based on a principle that the refractive index of light passing through a sensor chip varied depending on the condition of the substance coated on the sensor chip. If an antibody or an antigen is flowed on the chip which is coated with an antigen or an antibody, the binding between the antigen and the antibody leads to change in refractive index, and Kd value can be calculated based on the refractive index.
25 μg/ml of anti-human Fc antibody (Sigma) was fixed on CM5 sensor chip (GE Healthcare) using pH 5.0 sodium acetate solution and amine coupling kit (GE Healthcare). 2 μg/ml of the anti-VEGF-C antibody obtained in Example 2 was added on the chip to be captured.
Recombinant VEGF-C protein (R&D Systems) was serially diluted with HBS-P (GE-Health) solution starting from the concentration of 200 nM and flowed on the chip, leading to binding (on) to and dissociating (off) from the antibody, thereby measuring the antigen-antibody affinity.
(In general: In SPR one partner is held on a chip, and binding of the other changes the refractive index at the surface.)

Experiment [2] addresses T1, human VEGF-C polypeptide (R&D Systems; …). As to the kind of experiment: ELISA on coated human VEGF-C (1 ug/ml), anti-HA-HRP detection; 50% binding concentration, given as Kd. The protocol: ELISA for verifying the binding affinity of the anti-VEGF-C antibody in scFv form purified in Example 2 to its antigen was carried out. MaxiSorp™ flat-bottom plate (Nunc) of 96-wells was coated with 1 μg/ml of human VEGF-C(R&D Systems) for 16 hours. The plate was then washed 5 times with phosphate buffer saline (PBS) supplemented with 0.05%(v/v) Tween-20, and then blocked with PBS supplemented with 1%(v/v) bovine serum albumin (BSA; Sigma) at room temperature for 2 hours. The anti-VEGF-C antibody in scFv form purified in Example 2 was added to each well of the plate and was incubated at room temperature for 2 hours.
The plate was washed 5 times with PBS supplemented with 0.05% (v/v) Tween-20. HRP-conjugated anti-HA antibody (HA-probe Antibody (F-7) HRP conjugated) (Santacruz) diluted with PBS supplemented with 1%(v/v) BSA was added at the dilution ratio of 1:1,000 (v/v) and was incubated at room temperature for 1 hour. The reacted well was washed 5 times with PBS supplemented with 0.1%(v/v) Tween-20. Finally, tetramethylbenzidine (TMB) substrate (Cell Signal) was added to each well of the plate at the amount of 100 μl to induce coloring reaction at room temperature for 3 minutes. Then, the reaction was stopped with 50 μl of 5N H₂SO₄ solution, and OD450 value was measured on plate reader (Molecular Devices).
On the technique in general: An ELISA detects its analyte on a solid surface through an enzyme-linked reagent.

The target in experiment [3] is T2, FLAG-tagged human VEGF-C (Accession # P49767) (human, UniProt P49767 112-227, limits assumed).
T2 construct: not shown: FLAG tag
T2 sequence (looked up): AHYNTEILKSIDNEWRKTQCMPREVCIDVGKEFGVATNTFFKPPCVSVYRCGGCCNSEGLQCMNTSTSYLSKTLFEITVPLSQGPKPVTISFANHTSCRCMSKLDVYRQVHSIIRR
As to the kind of experiment: competitive ELISA: human VEGR-R3-Fc coated, 200 ng/ml FLAG-tagged human VEGF-C plus scFv (1-1000 nM), anti-FLAG-HRP; competitor VEGR-R3-Fc. The protocol: To examine the effect of the anti-VEGF-C antibody purified in Example 2 on the inhibition of VEGF-C:VEGR-R3 binding, a competitive ELISA, which is used for verification of molecular interaction, was performed. MaxiSorp™ flat-bottom plate (Nunc) of 96-wells was coated with […] of human VEGR-R3-Fc (R&D Systems. Accession No. P35916) which is a fusion protein composed of human VEGR-R3 and Fc of human IgG1. Thereafter, the plate was washed 5 times with phosphate buffer saline (PBS) supplemented with 0.05%(v/v) Tween-20, and then blocked with PBS supplemented with 1%(v/v) bovine serum albumin (BSA; Sigma) at room temperature for 2 hours.
To perform the VEGF-C:VEGR-R3 neutralization ELISA, the anti-VEGF-C antibody (concentration: 1 nM, 10 nM, 100 nM, or 1000 nM) purified in Example 2 was added to each well coated with the human VEGR-R3-Fc, together with a mixture of 1%(v/v) BSA and 200 ng/ml of FLAG-tagged human VEGF-C (Accession # P49767), and incubated at room temperature for 2 hours. Thereafter, the plate was washed 5 times with PBS supplemented with 0.05% (v/v) Tween-20. […] Then, the reaction was stopped by addition of 50 μl of 5N H₂SO₄ solution, and OD450 value was measured using plate reader (Molecular Devices).

In experiment [4] the target is T2, FLAG-tagged human VEGF-C (Accession # …). As to the kind of experiment: competitive ELISA: human VEGR-R3-Fc coated, 200 ng/ml FLAG-tagged human VEGF-C plus IgG (1-1000 nM), anti-FLAG-HRP; competitor VEGR-R3-Fc. The protocol: MaxiSorp™ flat-bottom plate (Nunc) of 96-wells was coated with […] of human VEGR-R3-Fc (R&D Systems. Accession No. P35916) which is a protein produced by coupling human VEGR-R3 with Fc of human IgG1. Thereafter, the plate was washed 5 times with phosphate buffer saline (PBS) supplemented with 0.05%(v/v) Tween-20, and then blocked with PBS supplemented with 1%(v/v) bovine serum albumin (BSA; Sigma) at room temperature for 2 hours.
For performing the VEGF-R3:VEGF-C neutralization ELISA, the anti-VEGF-C antibody (concentration: 1 nM, 10 nM, 100 nM, or 1000 nM) in IgG form purified in Example 6 was added to each well of the human VEGR-R3-Fc coated plate, together with a mixture of 1%(v/v) BSA and 200 ng/ml of FLAG-tagged human VEGF-C (Accession # P49767), and then, the plate was reacted at room temperature for 2 hours. Thereafter, the plate was washed 5 times with PBS supplemented with 0.05% (v/v) Tween-20. HRP-conjugated anti-FLAG antibody (SIGMA) was diluted with PBS supplemented with 1%(v/v) BSA at the dilution ratio of 1:5,000 (v/v), and added to each well in the amount of 100 μl, to react at room temperature for 1 hour. The reacted well was washed 5 times with PBS supplemented with 0.1%(v/v) Tween-20. […] Then, the reaction was stopped with 50 μl of 5N H₂SO₄ solution, and OD450 value was measured on plate reader (Molecular Devices).

B1: SAIT-VEGFC-AB-4A2, anti-VEGF-C antibody in scFv form purified in Example 2 (scFv, V domains shown)
VH: EVQLLESGGGLVQPGGSLRLSCAASGFTFSSYDMSWVRQAPGKGLEWVSAISYDNGSTYYADSVKGRFTISRDNSKNTLYLQMNSLRAEDTAVYYCARDPYLARLNTFDYWGQGTLVTVSS
VL: QSVLTQPPSASGTPGQRVTISCSGSSSNIGSNNVSWYQQLPGTAPKLLIYYNSHRPSGVPDRFSGSKSGTSASLAISGLRSEDEADYYCATWDSSLNGYVFGGGTKLTVL
notes: Expressed in the E. coli periplasm and partially purified on Ni-NTA; also called anti-VEGF-C scFv antibody
What is called Kd is the free concentration of one partner at which half of the binding sites on the other are occupied at equilibrium, for simple one-to-one binding. By koff is commonly meant a measure of how fast the partners let go of each other. For orientation: kon means a measure of how fast the partners come together. As a reminder, the IC50 is the concentration that gives 50% inhibition. In the case of B1, in experiment [1], the dissociation constant Kd was 0.345 nM, the koff is 0.00258 s⁻¹ and the kon amounted to 7.45e+06 M⁻¹ s⁻¹. In experiment [2], the Kd is 26.2 nM. In addition, the IC50 in experiment [3] stood at 33.4 nM.

B2: SAIT-VEGFC-AB-4A2, anti-VEGF-C antibody in IgG form purified in Example 6 (antibody, V domains shown)
VH: B1 VH
VL: QSVLTQPPSASGTPGQRVTISCSGSSSNIGSNNVSWYQQLPGTAPKLLIYYNSHRPSGVPDRFSGSKSGTSASLAISGLRSEDEADYYCATWDSSLNGYVFGGGTKLT
notes: VH was cloned into pOPTI-VAC, which carries the human IgG1 constant region and Fc; Expressed in 293-F cells and purified on Protein A
For the molecule B2, in experiment [4], the IC50 is 9.2 nM.
